# Experimental data published in the RNAGym collection of RNA variant scans (doi:10.1093/molbev/msab373).
# B1: Azoarcus group I ribozyme (parent)
# chain: GUGCCUUGCGCCGGGAAACCACGCAAGGGAUGGUGUCAAAUUCGGCGAAACCUAAGCGCCCGCCCGGGCGUAUGGCAACGCCGAGCCAAGCUUCGGCGCCUGCGCCGAUGAAGGUGUAGAGACUAGACGGCACCCACCUAAGGCAAACGCUAUGGUGAAGGCAUAGUCCAGGGAGUGGCGAAAGUCACACAAACCGG
# Variants of: B1
# Assay: reverse-splicing fitness (ratio to wild type); higher = more active; in vitro selection; Mg2+ level not given
# Summary of the method: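 An in vitro group I ribozyme library with randomized positions was T7-transcribed and gel-purified. In triplicate, 10 pmol RNA in EPPS pH 7.5 was reacted with 50 pmoles of a 30-nt RNA substrate for 1 h at 37 °C across several added MgCl2 levels (1–48 mM), then stopped with EDTA. Products were reverse transcribed from a substrate-complementary primer, PCR-amplified and sequenced (HiSeq 4000). Fitness is a variant's read proportion after selection over that before, normalised to wild type.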
row,Variant,reverse-splicing fitness
1,GUGCCUUGCGCCGGGAAACCACGCAAGGGAUGGUGUCAAAUUCGGCGAAACCUAAGCGCCCGCCCGGGCGUAUGGCAACGCGGAGCCAAGCUUCGGCGCCUGCGCCGAUGGAGGUGUAGAGACUAGACGGCACCCACCUAAGGCUAACGUUAUGGUGAAGGCAUAGUCUAGGGAGAGGCGAAAGUCACACAAACCGG [C82G A111G A145U C150U C169U U176A],0.0134
2,GUGCCUUGCGCCGGGAAACCACGCAAGGGAUGGUGUCAAAUUCGGCGAAACCUAAGCGCCCGCCCGGGCGUAUGGCAACGCGGAGCCAAGCUUCGGCGCCUGCGCCGAUGGAGGUGUAGAGACUAGACGGCACCCACCUAAGGCUAACGGUAUGGUGAAGGCAUAGUCGAGGGAGAGGCGAAAGUCACACAAACCGG [C82G A111G A145U C150G C169G U176A],0.00911
3,GUGCCUUGCGCCGGGAAACCACGCAAGGGAUGGUGUCAAAUUCGGCGAAACCUAAGCGCCCGCCCGGGCGUAUGGCAACGCGGAGCCAAGCUUCGGCGCCUGCGCCGAUGGAGGUGUAGAGACUAGACGGCACCCACCUAAGGCUAACGGUAUGGUGAAGGCAUAGUCGAGGGAGGGGCGAAAGUCACACAAACCGG [C82G A111G A145U C150G C169G U176G],0.00579
4,GUGCCUUGCGCCGGGAAACCACGCAAGGGAUGGUGUCAAAUUCGGCGAAACCUAAGCGCCCGCCCGGGCGUAUGGCAACGCGGAGCCAAGCUUCGGCGCCUGCGCCGAUGGAGGUGUAGAGACUAGACGGCACCCACCUAAGGCUAACGGUAUGGUGAAGGCAUAGUCGAGGGAGCGGCGAAAGUCACACAAACCGG [C82G A111G A145U C150G C169G U176C],0.00969
5,GUGCCUUGCGCCGGGAAACCACGCAAGGGAUGGUGUCAAAUUCGGCGAAACCUAAGCGCCCGCCCGGGCGUAUGGCAACGCGGAGCCAAGCUUCGGCGCCUGCGCCGAUGGAGGUGUAGAGACUAGACGGCACCCACCUAAGGCUAACGUUAUGGUGAAGGCAUAGUCAAGGGAGUGGCGAAAGUCACACAAACCGG [C82G A111G A145U C150U C169A],0.00966
6,GUGCCUUGCGCCGGGAAACCACGCAAGGGAUGGUGUCAAAUUCGGCGAAACCUAAGCGCCCGCCCGGGCGUAUGGCAACGCGGAGCCAAGCUUCGGCGCCUGCGCCGAUGGAGGUGUAGAGACUAGACGGCACCCACCUAAGGCUAACGUUAUGGUGAAGGCAUAGUCGAGGGAGUGGCGAAAGUCACACAAACCGG [C82G A111G A145U C150U C169G],0.00988
7,GUGCCUUGCGCCGGGAAACCACGCAAGGGAUGGUGUCAAAUUCGGCGAAACCUAAGCGCCCGCCCGGGCGUAUGGCAACGCGGAGCCAAGCUUCGGCGCCUGCGCCGAUGGAGGUGUAGAGACUAGACGGCACCCACCUAAGGCUAACGUUAUGGUGAAGGCAUAGUCUAGGGAGUGGCGAAAGUCACACAAACCGG [C82G A111G A145U C150U C169U],0.0113
8,GUGCCUUGCGCCGGGAAACCACGCAAGGGAUGGUGUCAAAUUCGGCGAAACCUAAGCGCCCGCCCGGGCGUAUGGCAACGCGGAGCCAAGCUUCGGCGCCUGCGCCGAUGGAGGUGUAGAGACUAGACGGCACCCACCUAAGGCUAACGUUAUGGUGAAGGCAUAGUCAAGGGAGCGGCGAAAGUCACACAAACCGG [C82G A111G A145U C150U C169A U176C],0.0132
9,GUGCCUUGCGCCGGGAAACCACGCAAGGGAUGGUGUCAAAUUCGGCGAAACCUAAGCGCCCGCCCGGGCGUAUGGCAACGCGGAGCCAAGCUUCGGCGCCUGCGCCGAUGGAGGUGUAGAGACUAGACGGCACCCACCUAAGGCUAACGUUAUGGUGAAGGCAUAGUCAAGGGAGAGGCGAAAGUCACACAAACCGG [C82G A111G A145U C150U C169A U176A],0.015
10,GUGCCUUGCGCCGGGAAACCACGCAAGGGAUGGUGUCAAAUUCGGCGAAACCUAAGCGCCCGCCCGGGCGUAUGGCAACGCGGAGCCAAGCUUCGGCGCCUGCGCCGAUGGAGGUGUAGAGACUAGACGGCACCCACCUAAGGCUAACGUUAUGGUGAAGGCAUAGUCAAGGGAGGGGCGAAAGUCACACAAACCGG [C82G A111G A145U C150U C169A U176G],0.00584
11,GUGCCUUGCGCCGGGAAACCACGCAAGGGAUGGUGUCAAAUUCGGCGAAACCUAAGCGCCCGCCCGGGCGUAUGGCAACGCGGAGCCAAGCUUCGGCGCCUGCGCCGAUGGAGGUGUAGAGACUAGACGGCACCCACCUAAGGCUAACGUUAUGGUGAAGGCAUAGUCCAGGGAGAGGCGAAAGUCACACAAACCGG [C82G A111G A145U C150U U176A],0.154
12,GUGCCUUGCGCCGGGAAACCACGCAAGGGAUGGUGUCAAAUUCGGCGAAACCUAAGCGCCCGCCCGGGCGUAUGGCAACGCGGAGCCAAGCUUCGGCGCCUGCGCCGAUGGAGGUGUAGAGACUAGACGGCACCCACCUAAGGCUAACGUUAUGGUGAAGGCAUAGUCCAGGGAGGGGCGAAAGUCACACAAACCGG [C82G A111G A145U C150U U176G],0.0614
13,GUGCCUUGCGCCGGGAAACCACGCAAGGGAUGGUGUCAAAUUCGGCGAAACCUAAGCGCCCGCCCGGGCGUAUGGCAACGCGGAGCCAAGCUUCGGCGCCUGCGCCGAUGGAGGUGUAGAGACUAGACGGCACCCACCUAAGGCUAACGUUAUGGUGAAGGCAUAGUCCAGGGAGCGGCGAAAGUCACACAAACCGG [C82G A111G A145U C150U U176C],0.165
14,GUGCCUUGCGCCGGGAAACCACGCAAGGGAUGGUGUCAAAUUCGGCGAAACCUAAGCGCCCGCCCGGGCGUAUGGCAACGCGGAGCCAAGCUUCGGCGCCUGCGCCGAUGGAGGUGUAGAGACUAGACGGCACCCACCUAAGGCUAACGGUAUGGUGAAGGCAUAGUCUAGGGAGUGGCGAAAGUCACACAAACCGG [C82G A111G A145U C150G C169U],0.00934
15,GUGCCUUGCGCCGGGAAACCACGCAAGGGAUGGUGUCAAAUUCGGCGAAACCUAAGCGCCCGCCCGGGCGUAUGGCAACGCGGAGCCAAGCUUCGGCGCCUGCGCCGAUGGAGGUGUAGAGACUAGACGGCACCCACCUAAGGCUAACGGUAUGGUGAAGGCAUAGUCGAGGGAGUGGCGAAAGUCACACAAACCGG [C82G A111G A145U C150G C169G],0.00774
